Measured values as given in PMC9482650, “Quantitative fragmentomics allow affinity mapping of interactomes” (Nature Communications, 2022).

T1: SYNPO2L, Q9H987
T1 sequence (Q9H987 1-98, limits assumed, looked up): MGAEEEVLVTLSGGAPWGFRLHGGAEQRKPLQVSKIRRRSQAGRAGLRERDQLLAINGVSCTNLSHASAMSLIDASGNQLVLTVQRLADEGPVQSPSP

T2: NHERF1_2, O14745
T2 sequence (O14745 149-244, limits assumed, looked up): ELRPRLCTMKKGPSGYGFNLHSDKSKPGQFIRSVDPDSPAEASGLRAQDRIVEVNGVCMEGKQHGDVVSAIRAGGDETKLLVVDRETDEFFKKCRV

T3: TJP3_1, O95049
T3 sequence (O95049 6-103, limits assumed, looked up): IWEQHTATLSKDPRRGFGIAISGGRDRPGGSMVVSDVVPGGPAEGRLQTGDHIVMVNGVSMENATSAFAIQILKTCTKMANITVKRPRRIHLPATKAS

T4: GRIP1_1, Q9Y3R0
T4 sequence (Q9Y3R0 48-146, limits assumed, looked up): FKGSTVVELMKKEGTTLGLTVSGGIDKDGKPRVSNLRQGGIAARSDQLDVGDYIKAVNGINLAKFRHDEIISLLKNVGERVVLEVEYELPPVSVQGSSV

T5: MPDZ_11, O75970
T5 sequence (O75970 1720-1817, limits assumed, looked up): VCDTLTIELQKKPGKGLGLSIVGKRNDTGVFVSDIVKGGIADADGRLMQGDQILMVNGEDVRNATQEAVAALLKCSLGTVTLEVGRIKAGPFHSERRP

T6: NHERF3_2, Q5T2W1
T6 sequence (Q5T2W1 129-225, limits assumed, looked up): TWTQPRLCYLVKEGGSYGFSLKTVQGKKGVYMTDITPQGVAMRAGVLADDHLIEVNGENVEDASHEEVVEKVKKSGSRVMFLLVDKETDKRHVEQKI

T7: MPP1, Q00013
T7 sequence (Q00013 66-162, limits assumed, looked up): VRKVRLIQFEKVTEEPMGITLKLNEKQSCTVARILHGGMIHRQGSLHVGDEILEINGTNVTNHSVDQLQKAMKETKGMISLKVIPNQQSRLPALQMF

T8: PDZD2_4, O15018
T8 sequence (O15018 723-823, limits assumed, looked up): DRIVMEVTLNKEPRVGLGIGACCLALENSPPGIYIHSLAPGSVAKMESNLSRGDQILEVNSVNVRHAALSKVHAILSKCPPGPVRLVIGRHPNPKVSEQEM

T9: MLLT4, P55196
T9 sequence (P55196 1002-1103, limits assumed, looked up): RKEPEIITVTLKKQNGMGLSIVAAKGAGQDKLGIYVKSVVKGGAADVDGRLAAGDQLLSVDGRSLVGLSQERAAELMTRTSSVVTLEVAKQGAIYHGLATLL

T10: PDZD2_5, O15018
T10 sequence (O15018 2617-2716, limits assumed, looked up): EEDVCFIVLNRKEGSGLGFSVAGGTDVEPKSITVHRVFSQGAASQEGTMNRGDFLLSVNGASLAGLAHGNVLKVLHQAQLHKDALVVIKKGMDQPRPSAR

T11: SHANK3, Q9BYB0
T11 sequence (Q9BYB0 641-750, limits assumed, looked up): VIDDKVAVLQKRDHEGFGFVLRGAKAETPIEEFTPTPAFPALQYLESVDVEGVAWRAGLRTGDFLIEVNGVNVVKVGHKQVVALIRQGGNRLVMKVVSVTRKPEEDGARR

T12: LNX2_4, Q8N448
T12 sequence (Q8N448 595-690, limits assumed, looked up): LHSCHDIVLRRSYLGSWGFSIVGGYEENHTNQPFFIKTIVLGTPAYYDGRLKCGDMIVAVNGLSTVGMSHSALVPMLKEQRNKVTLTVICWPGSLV

T13: MPDZ_13, O75970
T13 sequence (O75970 1982-2070, limits assumed, looked up): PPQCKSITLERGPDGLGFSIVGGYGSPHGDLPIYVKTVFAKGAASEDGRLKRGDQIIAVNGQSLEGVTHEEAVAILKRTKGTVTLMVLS

T14: SNTB2, Q13425
T14 sequence (Q13425 110-208, limits assumed, looked up): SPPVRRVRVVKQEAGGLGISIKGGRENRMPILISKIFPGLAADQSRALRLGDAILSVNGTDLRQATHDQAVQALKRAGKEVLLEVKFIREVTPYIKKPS


How the values were obtained:
Test in all cases: holdup assay
Set-up in all cases: key: below the threshold = too weak to quantify, mostly under pKd 3.1 to 4
Conditions in all cases: plain residues with an end cap or a label only (N-terminal biotin on a linker: ttds)
SYNPO2L, Q9H987 = biological target: T1, SYNPO2L, Q9H987
NHERF1_2, O14745 = biological target: T2, NHERF1_2, O14745
SDCBP_1, O00560 = biological target: SDCBP_1, O00560
TJP3_1, O95049 = biological target: T3, TJP3_1, O95049
GRIP1_1, Q9Y3R0 = biological target: T4, GRIP1_1, Q9Y3R0
MPDZ_11, O75970 = biological target: T5, MPDZ_11, O75970
NHERF3_2, Q5T2W1 = biological target: T6, NHERF3_2, Q5T2W1
MPP1, Q00013 = biological target: T7, MPP1, Q00013
PDZD9, Q8IXQ8 = biological target: PDZD9, Q8IXQ8
PARD3B_3, Q8TEW8 = biological target: PARD3B_3, Q8TEW8
PDZD2_4, O15018 = biological target: T8, PDZD2_4, O15018
MLLT4, P55196 = biological target: T9, MLLT4, P55196
DLG2_1, Q15700 = biological target: DLG2_1, Q15700
DVL2, O14641 = biological target: DVL2, O14641
SCRIB_4, Q14160 = biological target: SCRIB_4, Q14160
PREX1_1, Q8TCU6 = biological target: PREX1_1, Q8TCU6
PDZD2_5, O15018 = biological target: T10, PDZD2_5, O15018
SHANK3, Q9BYB0 = biological target: T11, SHANK3, Q9BYB0
LNX2_4, Q8N448 = biological target: T12, LNX2_4, Q8N448
MPDZ_13, O75970 = biological target: T13, MPDZ_13, O75970
MAGI3_3, Q5TCQ9 = biological target: MAGI3_3, Q5TCQ9
SNTB2, Q13425 = biological target: T14, SNTB2, Q13425

SCRIB_4, Q14160, sequence (Q14160 1095-1204): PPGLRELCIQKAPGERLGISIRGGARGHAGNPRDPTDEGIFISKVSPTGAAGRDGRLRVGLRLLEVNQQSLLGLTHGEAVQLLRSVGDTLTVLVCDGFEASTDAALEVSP
MAGI3_3, Q5TCQ9, sequence (Q5TCQ9 572-655): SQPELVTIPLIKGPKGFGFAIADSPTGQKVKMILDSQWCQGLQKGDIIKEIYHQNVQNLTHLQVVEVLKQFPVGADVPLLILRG
PDZD9, Q8IXQ8, sequence (Q8IXQ8 23-120): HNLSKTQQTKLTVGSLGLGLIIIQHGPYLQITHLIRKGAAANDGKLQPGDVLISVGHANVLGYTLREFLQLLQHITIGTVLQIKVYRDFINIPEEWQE
SDCBP_1, O00560, sequence (O00560 111-198): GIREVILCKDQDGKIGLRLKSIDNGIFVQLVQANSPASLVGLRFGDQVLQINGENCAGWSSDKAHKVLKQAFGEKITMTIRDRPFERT
PARD3B_3, Q8TEW8, sequence (Q8TEW8 490-594): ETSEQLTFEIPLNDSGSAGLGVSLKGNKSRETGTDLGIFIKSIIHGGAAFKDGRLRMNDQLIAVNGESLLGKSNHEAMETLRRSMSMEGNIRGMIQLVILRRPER
PREX1_1, Q8TCU6, sequence (Q8TCU6 608-718): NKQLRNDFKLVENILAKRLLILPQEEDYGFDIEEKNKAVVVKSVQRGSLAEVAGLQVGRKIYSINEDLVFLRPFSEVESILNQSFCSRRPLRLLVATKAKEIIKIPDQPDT
DVL2, O14641, sequence (O14641 260-359): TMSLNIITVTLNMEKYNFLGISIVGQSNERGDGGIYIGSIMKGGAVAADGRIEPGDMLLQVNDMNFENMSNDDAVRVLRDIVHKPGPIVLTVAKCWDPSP

Binder | pKd (SYNPO2L, Q9H987) | pKd (NHERF1_2, O14745) | pKd (SDCBP_1, O00560) | pKd (TJP3_1, O95049) | pKd (GRIP1_1, Q9Y3R0) | pKd (MPDZ_11, O75970) | pKd (NHERF3_2, Q5T2W1) | pKd (MPP1, Q00013) | pKd (PARD3B_3, Q8TEW8) | pKd (PDZD2_4, O15018) | pKd (MLLT4, P55196) | pKd (DLG2_1, Q15700) | pKd (DVL2, O14641) | pKd (SCRIB_4, Q14160) | pKd (PREX1_1, Q8TCU6) | pKd (PDZD2_5, O15018) | pKd (SHANK3, Q9BYB0) | pKd (LNX2_4, Q8N448) | pKd (MPDZ_13, O75970) | pKd (MAGI3_3, Q5TCQ9) | also measured
SEKHFRETEV [HTLV1-TAX1, P03409] | below the threshold | below the threshold | below the threshold | below the threshold | below the threshold | 4.25 | below the threshold | below the threshold | below the threshold | below the threshold | 4.08 | 5.16 | below the threshold | 4.43 | below the threshold | 4.16 | below the threshold | below the threshold | 4.77 | 4.36 | pKd (PDZD9, Q8IXQ8): below the threshold
TGDTLEKFVEGL [CBP, Q92793] | below the threshold | 3.96 | below the threshold | below the threshold | below the threshold | below the threshold | below the threshold | below the threshold | below the threshold | below the threshold | below the threshold | below the threshold | below the threshold | below the threshold | 4.22 | 3.8 | below the threshold | below the threshold | below the threshold | below the threshold | pKd (SNTB2, Q13425): below the threshold
DEDQHTQITKV [PTEN, P60484] | below the threshold | below the threshold | below the threshold | below the threshold | below the threshold | below the threshold | below the threshold | below the threshold | below the threshold | below the threshold | below the threshold | below the threshold | below the threshold | below the threshold | below the threshold | below the threshold | – | below the threshold | – | below the threshold | pKd (SNTB2, Q13425): below the threshold
RRVRKLPSTTL [RPS6KA1, Q15418] | below the threshold | below the threshold | below the threshold | below the threshold | below the threshold | 3.58 | below the threshold | below the threshold | below the threshold | below the threshold | below the threshold | 3.83 | below the threshold | below the threshold | – | below the threshold | 4.14 | below the threshold | below the threshold | below the threshold | pKd (PDZD9, Q8IXQ8): below the threshold
QPGTPTRTAV [MAP2K2, P36507] | below the threshold | below the threshold | below the threshold | below the threshold | below the threshold | below the threshold | below the threshold | 4.12 | below the threshold | below the threshold | below the threshold | below the threshold | 4.8 | below the threshold | below the threshold | below the threshold | below the threshold | below the threshold | below the threshold | below the threshold | pKd (PDZD9, Q8IXQ8): below the threshold; pKd (SNTB2, Q13425): below the threshold
CLDTSRETDL [KCNA5, P22460] | below the threshold | below the threshold | below the threshold | below the threshold | below the threshold | below the threshold | below the threshold | below the threshold | below the threshold | below the threshold | below the threshold | below the threshold | below the threshold | below the threshold | below the threshold | below the threshold | below the threshold | below the threshold | below the threshold | below the threshold | pKd (PDZD9, Q8IXQ8): below the threshold; pKd (SNTB2, Q13425): 4.91
